B1: antibody 317 (antibody, V domains shown)
VH: QVQLVQSGAEVKKPGASVKVSCKVSGYTLTELSMHWVRQAPGKGLEWMGGFDPEDGETIYAQKFQGRVTMTEDTSTDTAYMELSSLRSEDTAVYYCASSPAAAGTSQYYYYYGMDVWGQGTTVTVSS
VL: not shown
B2: antibody 259 (antibody, V domains shown)
VH: EVQLVQSGAEVKKPGATVKISCKVSGYTFTDYYMHWVQQAPGKGLEWMGLVDPEDGETIYAEKFQGRVTITADTSTDTAYMELSSLRSEDTAVYYCATDLLSWKLYCSGGSCPQMDVWGQGTTVTVSS
VL: DIQMTQSPSSLSASVGDRVTITCRASQGIRNDLGWYQQKPGKAPKRLIYAASSLQSGVPSRFSGSGSGTEFTLTISSLQPEDFATYYCLQHNSYPQTFGQGTKLEIK
B3: antibody 265 (antibody, V domains shown)
VH: EVQLVQSGAEVKKPGATVKVSCKFSGDTFSHYYIHWVQQAPGKGLEWMGLVDPQDGESEYAQKFQGKVTITADTSIDTSYLEVTSLRFDDTAFYFCATRGMSGAFDRWGQGTLVTVSS
VL: DIVMTQSPDSLAVSLGERATINCKSSQSILSTSNNKNYLAWYQQKPGQPPKLLIYWASTRESGVPDRFSGGGSGTDFTLTISSLQAEDVAVYYCQQYYRTAYTTPIYTFGQGTKLEIK
B4: antibody 267 (antibody, V domains shown)
VH: EVHLVQSGAEMKKPGATVKISCKVSGNTFIDHYIQWVQQAPGKGFEWMGLVDPEDGETIYAEKFQGRVTITADTSRDTAYMELSSLKSEDTAVYYCGTHGDYLDYWGQGTLVTVSS
VL: FYELTQPSSVSVSPGQTALITCSGDVVAKKYARWFQQKAGQAPVLVIYKDTERPSGIPERISGSSSGTTVTLTISGAQVEDEADYYCYSATDNNLVFGGGTKVTVL
B5: antibody 273 (antibody, V domains shown)
VH: QVQLVQSGAEVKKPGASVKVSCKVSGYTLTELSMHWVRQAPGKGLEWMGGFDPEDGETIYAQKFQGRVTMTEDTSTDTAYMELSSLRSEDTAVYYCATAPGYYDSSAPQPINWFDPWGQGTLVTVSS
VL: QSALTQPASVSGSPGQSITISCTGTSSDVGSYNLVSWYQQHPGKAPKLMIYEVSKRPSGVSNRFSGSKSGNTASLTISGLQAEDEADYYCCSYAGSSTLVFGGGTKLTVL
B6: antibody 263 (antibody, V domains shown)
VH: EVQLVQSGAEVKKPGATVKISCKVSGYTFTDYYMHWVQQAPGKGLEWMGLVDPEDGETIYAEKFQGRVTITADTSTDTAYMELSSLRSDDTAVYYCTTDLAFTIFGGRRGFDPWGQGTLVTVSS
VL: DIQLTQSPSFLSASVGDRVTITCRASQGISSYLAWYQQKPGKAPKLLIYAASTLQSGVPSRFSGSGSGTEFTLTISSLQPEDFATYYCQQLNSYDFGQGTRLEIK
B7: antibody 290 (antibody, V domains shown)
VH: QVHLVQSGAEVKKPGASVKVSCAASGYTFNNYGVSWVRQAPGQGLEWMGWISASNGNTKYAQNLQGRVTMTTDTSTSTAYMELRSLRSDDTAVYYCARDLVGPTAPNYYYGMDVWGQGTAVTVSS
VL: QSVLTQPPSVSGAPGQRVTISCTGSSSSIGAGYDVHWYQQLPGTAPKLLIYANSNRPSGVPDRLSGSKSGTSASLAITGLQAEDEADYYCQSYDSSLSGYVFGTGTKVTVL
B8: antibody 299 (antibody, V domains shown)
VH: not shown
VL: EIVLTQSPATLSLSPGERATLSCRASQSVSSYLAWYQQKPGQAPRLLIYDASNRATGIPARFSGSGSGTDFTLTISSLEPEDFAVYYCQQRSNWPWTFGQGTKVEIK
B9: antibody 270 (antibody, V domains shown)
VH: QVQLVQSGAEVKRPGTSVKVSCKTSGYTFTDHFIHWVRQAPGRRLEWMGWINPNSGGTNYAQNFQGRVTMTRDTSITTAYMDLTRLTSDDTAIYYCAREAAYGSGNLNWFDPWGQGTRVTVSS
VL: NFMLTQPHSVSESPGKTVTISCTGSSGSIAANYVHWYQQRPGSAPRTVIYEDNQRPSGVPDRFSGSIDSSSNSASLTISGLKTEDEADYYCQSYDGDSWVFGGGTKLTVL
B10: antibody 306 (antibody, V domains shown)
VH: QVQLVESGGGVVQPGRSLRLSCAASGFTFSSYGMHWVRQAPGKGLEWVAVIWYDGSNKYYADSVKGRFTISRDNSKNTLYLQMNSLRAEDTAVYYCAKDGGYCGGDCYSDGVDYWGQGTLVTVSS
VL: not shown
B11: antibody 294 (antibody, V domains shown)
VH: EVQLVESGGGLVQPGGSLRLSCAASGFTVSSNYMNWVRQAPGKGLEWVSVIYSGGSTYYADSVKGRFTISRDNSKNTLYLQMNSLRAEDTAVYYCARDLGPSGMDVWGQGTTVTVSS
VL: DIQMTQSPSSVSASVGDRVTITCRASQGISSWLAWYQQKPGKAPKLLIYAASSLQSGVPSRFSGSGSGTDFTLTISSLQPEDFATYYCQQANSFPLFGGGTKVEIK
B12: antibody 288 (antibody, V domains shown)
VH: EVQLVESGGGLVQPGGSLRLSCAASGFTFSSYDMHWVRQATGKGLEWVSAIGTAGDTYYPGSVKGRFTISRENAKNSLYLQMNSLRAGDTAVYYCARGANRDYDILTGYYSYYYYGMDVWGQGTTVTVSS
VL: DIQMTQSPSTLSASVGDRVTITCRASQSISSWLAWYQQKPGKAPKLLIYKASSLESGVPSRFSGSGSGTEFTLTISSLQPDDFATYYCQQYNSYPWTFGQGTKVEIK
B13: antibody 301 (antibody, V domains shown)
VH: QVQLVQSGAEVKKPGASVKVSCKVSGYTLTELSMHWVRQAPGKGLEWMGGFDPEDGETIYAQKFQGRVTMTEDTSTDTAYMELSSLRSEDTAVYYCATAFCGGDCYPPDALDIWGQGTMVTVSS
VL: DIQMTQSPSSVSASVGDRVTITCRASQGISSWLAWYQQKPGKAPKLLIYAASSLQSGVPSRFSGSGSGTDFTLTISSLQPEDFATYYCQQANSFPLTFGGGTKVEIK
B14: antibody 315 (antibody, V domains shown)
VH: QVQLVQSGSELKKPGASVKLSCQASGYSFTNHAMNWVRQAPGQGLEWMGWINTNTGNPTYAQGFTGRFVFSLDTSVSTTYLHISSLKAEDTAVYYCARASARPGVATNLDFWGQGTLVVVSS
VL: DIQMTQSPSSLSASVGDRVTITCRASQNIDNYLNWYQQKPGKAPKLLIYAASRLHSGVPSRFSGSGSGTDFTLIISSLQPEDLATYYCQQSYSNPLTFGPGTKVDIR
B15: antibody 295 (antibody, V domains shown)
VH: QVQLQESGPGLVKPSQTLSLTCTVSGGSISSSDYYWSWIRQPPGKGLEWIGYIYYSGSTYYNPSLKSRVTISVDTSKNQFSLKLSSVTAADTAVYYCARVVGYCSSTSCYVDYWGQGTLVTVSS
VL: EIVLTQSPATLSLSPGERVTLSCRASQSVSSYLAWYQQKPGQAPRLLIYDASNRATGIPARFSGSGSGTDFTLTISSLEPEDFAVYYCQQRSNWPPGLTFGGGTKVEIK
B16: antibody 260 (antibody, V domains shown)
VH: EVQLVESGGGLVQPGRSLRLSCAASGFTFDYYAMHWVRQAPGKGLEWVSGISWNSGTIGYADSVKGRFTISRDNAKNSLYLQMNSLRAEDTALYYCAKDSRPSGRYYYGMDVWGQGTTVTVSS
VL: not shown
B17: antibody 507 (antibody, V domains shown)
VH: QVQLQESGPGLVKPSGTLSLTCAVSGGSISSSNWWSWVRQPPGKGLEWIGEIYHSGNTNYNPSLKSRVTISVDKSKNQFSLKLSSVTAADTAVYYCARREWLRLFDYWGQGTLVTVSS
VL: B5 VL with L99Y, G103T, L107V
B18: antibody 496 (antibody, V domains shown)
VH: QVQLVQSGAEVKKPGASVKVSCKASGYTFTDYYIHWVRQAPGQGLEWMGWINPNSGGTNYAQKFQGRLTMTRDTSISTAYMELSRLRSDDTAVYYCARVYSMFREFIINPYYYYYGLDVWGQGTTVTVSS
VL: B5 VL with G15R, V53G, T76A, D87N
B19: antibody 498 (antibody, V domains shown)
VH: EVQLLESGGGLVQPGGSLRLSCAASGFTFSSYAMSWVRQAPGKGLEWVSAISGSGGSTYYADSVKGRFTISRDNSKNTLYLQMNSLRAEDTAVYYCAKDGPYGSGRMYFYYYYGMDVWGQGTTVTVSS
VL: QSALTQPASVSGSPGQSITISCTGTSSDVGSYNLVSWYQQHPGKAPKLMIYEGSKRPSGVSNRFSGSKSGNTASLTISGLQAEDEADYYCCSYAGSSTSFVVFGGGTKLTVL
B20: antibody 505 (antibody, V domains shown)
VH: EVQLVESGGGLVKPGGSLRLSCAASGFTFSSYSMNWVRQAPGKGLEWVSSISSSSSYIYYADSVKGRITISRDNAKNSLYLQMNSLRAEDTAVYYCAREYPNFRAEWLLSPYGMDVWGQGTTVTVSS
VL: B19 VL with G53V, F100V, V101K, G105T, L109V
B21: antibody 487 (antibody, V domains shown)
VH: QVQLQESGPGLVKPSQTLSLTCTVSGGSISSGGYYWSWIRQHPGKGLEWIGYIYYSGSTYYNPSLKSRVTISVDTSKNQFSLKLSSVTAADTAVYYCARGPLDFWSGYFRLRYFDCWGQGTLVTVSS
VL: QSALTQPASVSGSPGQSITISCTGTSSDVGGYNYVSWYQQHPGKAPKLMIYDVTNRPSGVSNRFSGSKSGNTASLTISGLQAEDEADYYCSSYTSSSTCVFGTGTKVTVL
B22: antibody 497 (antibody, V domains shown)
VH: QVQLQESGPGLVKPSQTLSLTCTVSGGSINSFGYYWSWIRQHPGKGLEWIGYIYYSGSTDYNPSLNSRVTISLDTSKNQFLLKLTSVTAADTAVYYCAKLTDYYDSSGYSFDYWGQGTLVTVSS
VL: B13 VL with G28D, S31R, S65R, D70E, F71L, Y87F, N92Y, L96F

Changes are numbered by the printed parent chain.

The first assay deals with full-length trimeric SARS-CoV spike protein (SARS-CoV, UniProt P59594 14-1190).
Consider B1, for which the “median fluorescence intensity, fold over isotype control” value (from here on “median fluorescence intensity, fold”) is 1.14 fold over isotype.
Turning to B2, the “median fluorescence intensity, fold” value was 1.03 fold over isotype.
B3: the “median fluorescence intensity, fold” value was found to be 1.09 fold over isotype.
B4: the “median fluorescence intensity, fold” value is 16.9 fold over isotype.
For the molecule B5, the “median fluorescence intensity, fold” value was 1.23 fold over isotype.
On to B6, for which the “median fluorescence intensity, fold” value came to 1.13 fold over isotype.
Take B7: the “median fluorescence intensity, fold” value was determined as 1.25 fold over isotype.
In the case of B8, the “median fluorescence intensity, fold” value came to 1.13 fold over isotype.
Regarding B9, the “median fluorescence intensity, fold” value is 1.34 fold over isotype.
Still for that read-out and setting: under B10 stands 1.39 fold over isotype; under B11, 1.07 fold over isotype.
The same measure, in the same setting: under B12 stands 1 fold over isotype; under B13, 1.45 fold over isotype; under B14, 1.07 fold over isotype.
Regarding B15, the “median fluorescence intensity, fold” value came out at 1.24 fold over isotype.
With B16, the “median fluorescence intensity, fold” value worked out at 108 fold over isotype.

The next assay addresses SARS-CoV spike protein (full-length trimeric, on beads) (SARS-CoV, UniProt P59594 14-1190).
For the molecule B17, the “bead binding signal, fold over isotype control” value (from here on “bead binding signal, fold”) was 1.07 fold over isotype.
Still for that read-out and setting: under B18 stands 1.15 fold over isotype.
For the molecule B19, the “bead binding signal, fold” value came out at 1.31 fold over isotype.
Take B20: the “bead binding signal, fold” value stood at 1.04 fold over isotype.
For B21, the “bead binding signal, fold” value came out at 7.25 fold over isotype.
Consider B22, for which the “bead binding signal, fold” value was determined as 1.23 fold over isotype.

The record behind these values is patent US20210292393A1 (published 2021).
